Laboratory results taken from the nanobody polyreactivity screen of Harvey et al. (2022).

Assay: yeast display, Sf9 membrane polyspecificity reagent, FACS + sequencing; frameworks hold sequencing errors
Summary of the method: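 A nanobody's polyreactivity label depends on the gate it was sorted from. Yeast display cells were stained with 10% biotinylated, detergent-solubilized Sf9 membrane reagent for 1 hour at 4 °C, enriched on streptavidin microbeads and sorted by FACS. The low and high (top ~1%) gates were set on anti-HA fluorescence for expression and streptavidin fluorescence for reagent binding.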

Sequence | polyreactivity (PSR sort gate)
QVQLVESGGGLVQAGGSLRLSCAASGLIFGTYAMGWYRQAPGKERELVAVISSSGGSTYYADSVKGRFTISRDNAKNTVYLQMNSLKPEDTAVYYCNARAFRQGHFEYDYWGQGTQVTVSS | low polyreactivity
QVKLVESGGGLVQAGGSLSLSCAATGIIFRFYSMGCYRQAPGKERELVAVITSRSDSTYYADSVKGRFTISRDNAKNTFYLQKNSLKPEDTAVYYCNARYPWYYRYSTYDYWGQGTQVTVSS | high polyreactivity
QVQLVESGGCLVQAGGSLRLSCAASGLTLDQYALGWYRQAPGKEREFVAAISYSGGNTYYADSVKGRFTISRDNAKYTVYLQMNSLKPEDTAVYYCAAYYFYFYHKVIWYELDYWGQGTQVTVSS | low polyreactivity
QVQLVESGGGLVQAGGSLRLSCAASGLTFGYYAMGWYRQAPGKERELVAAISQSGGSTYYADSVKGRFTISRDNAKNTVYLQMNSLKPEDTAVYYCATRRYGYRYDQPYSNDYWGQGTQVTVSS | low polyreactivity
QVQLVESGGGLVQAGGSLRLSCAASGSTFVKYAMGWYRQAPGKERELVAAISWSGGRTYYADSVKGRFTISRDNAKNTVYLQMNSLKPEDTAVYYCAARSWYDRYPYYSWGQGTQVTVSS | high polyreactivity
QVQLVESGGGLVQAGGSLRLSCAASGGIFYSNGMGWYRQAPGKERELVAAITGGDITDYADSVKGRFTISRDNAKNTVYLQMNSLKPEDTAVYFCAVESYPPDYGPRFGSWGQGTQVTVSS | low polyreactivity
QVQLVESGGGLVQAGGSLRLSCAASGFIFGVYDMGRYRQAPVKERDLVAAISIDDITNYADSVKGRFTISRDNAKNTVYLHLNSLKPEVTAVYYCAADGRTWWSNLEGEYWGQGTQVTVSS | low polyreactivity
QVQLVESGGGLVQAGGSLRLSCAPSGSIFVKNAMGWYRQAPGKERELVAFITIRTATTYYADSVKGRFTISRDNAKNTVYLQMNSLKPEDTAVYYCAAAKRQRGYLQREGNYWGQGTQVTVSS | low polyreactivity
QVQLVESGGGLVQAGGSLRLSCAASGFTLGNYAMGWYRQAPGKERELVAVITSGGRTYYADSVKGRFTISRDNAKNTVYLQMNSLKPEDTAVYYCNTKVYYYYRAVVDFDYWGQGTQVTVSS | low polyreactivity
QVQLVESGGGLVQAGGSLRLSCAASGRTFRYYAMGWYRQAPGKERELVAAISRSGGSTYYAVSVKGRFTISRDNAKNTVYLQMNSLTPEVTAVYYCAARYYVPWFGPSKYTPYDYWGQGIQVTVSS | high polyreactivity
QVQLVESGGGLVQAGGSLRLSCAASGRIFFDYAMGWYRQAPGKERELVADIDWSGGITYYADSVKGRFTISRDNAKNTVYLQMNSLIPEDTAVYYCAADFDELYPTTAYGEFEYWGQGTQVTVSS | high polyreactivity
QVQLVESGGGLVQAGGSLRLSCAASGFTFWYYAMGWYRQAPGKERELVASISSIGGSTYYADSVKGRFTISRDNAKNTVYLQMNSLKPEDTAVYYCAARYKFLRGGVRRDYWGQGTQVTVSS | high polyreactivity
QVQLVESGGGLVQAGGSLRLSCAASGFIFWSYAMGWYRQAPGKERELVAAIDLTGGSTYYADSVKGRFTISRDNAKNTVYLQMNSLKPEDTAVYYCNADGDTYAFTNSDSGFDYWGQGTQVSVSS | low polyreactivity
QVQLVESGGGLVQAGGILRISCAASGFIFWKNAMGWYRQAPGKERELVAAISRGGSTYYADSVKGRFTISRDNAKKTVYLQMNSLKPEDTAFYYCNKVGGATDKYLYYYWGQATQVTVSS | high polyreactivity
QVQLVESGGGLVQAGGSLRLSCAASGSTFVRYAMGWYRQAPGKERELVAAISSNGGSTYYADSVKGRFTISRDNAKNSVYLQMNSLKPEDTAVYYCAKSRVRKYYWGQGTQVTVSS | high polyreactivity
QVQLVESGGGLVQAGGSLRLSCAASGRTFYSYAMGGYRQAPGKERELVARITWSGGTYYADSVKGRFTISRDNAKNTVYLQMNSLKPEDTAVYYCAAKYWKWYHYGFGYWGQGTQVTVSS | high polyreactivity
QVHLVDSGGGLVLAGGSLRLSCAASGRNFERYAMGWYRKAPGKERELVAAISSSATRTYYADSVKGRFTISRDNAKNTVYLQMNSLKPEDTAVYYCAAKGAARDGSSEYNYWGQGTQVTVSS | high polyreactivity
QVQLVESGGGLVQAGGSLRLSCAASGSNILQNAMGWYRQAPGKERELVAAITNGGSTNYADSVKGRFTISRDNAKNTVYLQMNSLKPDDTAVYYCAAYPLYTGSYDRGGYWGQGTQVTVSS | low polyreactivity
QVQLVESGGGLVQAGGSLRLSCAASGFTFYSNDMGWYRQAPGKERELVAAISYSGGSTYYADSVKGRFTISRDNAKNTVYLQMKRLNPEDTAVYYCAAGGLQQGDYWGQGTQVTVSS | low polyreactivity
QVQLVESGGGLYQARGSLRLSCAASGSIFLDNAKGWYRQAPGKERELVAAISSGGNTNYADSVKGRFTISRDNAKNTVYLQINSLKPEDTAVYYCAADPTKWHYYLPRYYYWGQGTQVTLSS | low polyreactivity
QVQLVESGGGIVQAGGSLRLSCAASGRTSVVNAMGWYRQAPGKERELVAAITSGGSTHYADSVKGRFTISRDNAKNTVYLQINSLKPEDTAVYYCNARDRRRTNLLDYWGQGSQVTVSS | low polyreactivity
QVQLVESGGGLVQAGGSLRLSCAASGSIFPIYAWGWYRQAPGKERELVAAISGSGARTYYSDSVKGRFTISRDNAKNTVYLQMNSLKPEDTAVYYCNAKYGYDSEARIVKPVRYDYWGQGTQVTVSS | high polyreactivity

Sequence | polyreactivity (PSR sort gate)
QVQLVESGGGLVLAGGSLRLSCAASGFIFSPYVRGWYRQAPGKDRELVAAISSIGGSTYYADSVKGRFTISRDNAKNTVFLQMNSLKPEDTAVYYCADSVYYYASRYDYWGQVTQVTVSS | low polyreactivity
QVQLVESGGGLVQAGGSLRLSCAASGRTFFVYDMGWYRQAPGKERELVAAISRGGSTNYADSVKGRFTISRDNAKNTVYLQMNSLKPEDTAVYYCAASVQYRRLKKFYYWGQGTQVTVSS | high polyreactivity
QVQLVESGGGLVQAGGSLRLSCAASGRTFYRNAMGWYRQAPGKERELVAAISSGGSTTYADSVKGRFTISRDNAKNTVYLQMNSLKPEDTAVYYCAARSHAGSVSPRLKEYDYWGQGTQVTVSS | low polyreactivity
QVQLVESGGGLVQAGGSLRLSCAATGFTFGWNDMGWYRQARGKEMELVAAISGGGGSTYYADSVKGRFTISRDNAKNTVYLQMNSLKPEDTAVYYCATDSGTLIVKYDYWGQGTQVTVSS | low polyreactivity
QVQLVESGGGLVQAGGSLRLSCAASGRIFRTYAMGWYRQAPGKERELVAGITWRGTSTYYADYVKGRFTISRDNAKNTVYLQLNSLKPEDTAVYYCAAEWKGYYVHDYWGQGTQVTVSS | high polyreactivity
QVQLEESGGGLVQAGGSLRLSCAASGFTFTYYAMGWYRQAPGKERELVASISYSGGSTYYADSVKGRFTISRDNAKNTVYLQMNSLKPEDTAVYYGAARTRHVHYGYWGQVTQVTVSS | high polyreactivity
QDQLVESGGGLVQAGCSLRLTCAASGSTFTSNAMGWYRQAPGKERYLVASISGSVGRTYYADSVKGRFTISRDNAKNTVYLQMNSLKPEDTAVYYCNDESRNLYSTQFDYWGQGTQVTVSS | low polyreactivity
QDQLVESGVGIVQAGGSLRLSCAASGSTFGIYAKGWYRQAPGKETELDAAISSGASTNYADSVKGRFTISRDNEKNTVYLQMNSLKQEDTAVYYCAVESVYEYGGYVDSAYDYWGQGTQVTVSS | low polyreactivity
QVQLVESGGGLVQAGGSLRLSCAASGSIFGRYAMGWYRQAPGKERELVAAISWRGGSTYYADSVKGRFTISRDNAKNTVYLQMNRLKPEDTAVYYCAKSGTFYYPRYDYWGQGTQVTVSS | high polyreactivity
QVQLVESGGGLVQAGGSLRLSCAASGSTIYLYDMGWYRQAPGKERELVATITSGTSTTYADSVKGRFTISRDYAKNTVYLQMNSLKPADTAVYYCNATDVGIITVGYGHGGYYWGQGTQVTVSS | low polyreactivity
QVQLEESGGGLVQAGGSLRLSCAASGLTFVYNAMGWYRQAPGKERELVAAISRVGSTNYADSVKGRFTISRDNAKNTVYLQMNSLKPEDTAVYYCNAERSRRYSGWVNYAPLNYWGQGTQVTVSS | low polyreactivity
QVQLVESGGGLVQAGGSLRLSCAASGRTFPPTAMGGYRLAPGKEWELVAAISPSGASTYYADSVKGRFTISRDNAKNTVYLQMNSLKPEDTAVYYCAARRFIASPRYKYDYWGQGTQVTVSS | high polyreactivity
QVQLVESGGGLVQAGGSLRLSCAASGINFRTYAMGWYRQAPGKERELVAAINSDGSTYYADSVKGRFTISRDNAKITVYLQMNSLKPEDNAVYYCAAVVWRIHAYYWAVDGWYYYWGQGTQVTVSS | high polyreactivity
QVQLVDSGGGLVQGGGSLRLSCAASGRTFGIYPMRWYRPAPGKERELVAAISRRGTSTYYADTVKGRFTISRDNAKNTVYLQLNSLKPEDTAVYYCATVGATVDNRDDYWGQGTQVTVSS | high polyreactivity
QVQLVESGGGLVQAGGSLRLSCAASGRTFSWYVMGLYRQAPGKERELVAAINSNSGSTYYADSVKGRFTISRDNAKNTVYLQMNSLKPEDTAVYYCAARAKRYNVRFDYWGQGTQVTVSS | high polyreactivity
QVQLVESGGGLVQAGGSLRLICAASGRIFRRYAMGWYRQAPGKERELVASISLSGGSTYYADSVKGRFTISRDNAKNTVYLQMNSLKPEDTAVYYCAAVRPGVSNYGHWGQGTQLTVSS | high polyreactivity
QVQLVESGGGLVQAGGSLRLSCAASGSIFTLYAMGWNRQAPGQERELVAAITRSGGSTYYADSVKGRFTSSRDNAKNTVYLQMNSLKPEDTAVYYCAADKAPYSTEGDYWGQGTQVTVSS | high polyreactivity
QVQLVESGGGLVQAGGSLRLSCAASGSNISQNAMGWYRQAPGKERELVASITYSGGSTYYADSVKGRFTISRDNAKNTVYLQMNSLKPEVTAVYYCAADVRYSSRFYYWGQGTQVTVSS | high polyreactivity
QVQLVESGGGVVQAGGSLRLSCAASGGIILEYVMGWYRQARGEERELVAAISWSGTSTYYADSVKGRFTISRDNAKNTVYLQMNSLKPEDTAVYYCAKSEGVYSGWYGVDDYDYWGQGTQVTVSS | low polyreactivity
QVRLVESGGGLVQAGGSLRLSCAASGRTFTHNVMGWYRQAPGKERELVAGISSTGGSTYYADSVKVRFTISRDNAKNTVYLQMNSRKPEDPAVYYCNADYASYYRYSRPLEMNYWGQGTQVTVSS | low polyreactivity
RVQLVESGGGLVQAGGSLRLSCAASGRIFSYKAMGWYRQAPGKERELVAAITFSGGGTYYADSVKGRFTISRDNAKNPVYLQMNSLKPEDTAVYYCNKVSYGYSSYGYWGQGTQVTVSS | low polyreactivity
